Data: the RNAGym collection of RNA variant scans (doi:10.7554/elife.80360)

B1: Hairpin Ribozyme (parent)
chain: GUCCUCUUUCACGUGCGCGUGAAAGAGAGAAGUGAACCAGAGAAACACACGUUGUGGUAUAUUACCUGGUA

Variants of: B1
Test: self-cleavage, relative activity (ratio to wild type); higher = more cleavage; co-transcriptional

| Variant | self-cleavage |
| --- | --- |
| A28C A45U | 0.134 |
| A28C A45G | 0.201 |
| A28G A49U | 0.118 |
| A28G A49G | 0.637 |
| A28G G40A | 0.426 |
| A28C C46A | 0.191 |
| A28C C46U | 0.151 |
| A28C C46G | 0.0967 |
| G29A U33A | 0.203 |
| G29A G40U | 0.0938 |
| A30C C37A | 0.0529 |
| G29U G34C | 0.0691 |
| A30U A31C | 0.288 |
| A28C A61U | 0.272 |
| G29U U70C | 0.127 |
| A28C G42C | 0.109 |
| A28C G42A | 0.29 |
| G29C U58C | 0.159 |
| A28G G68C | 0.115 |
| A30G C37A | 0.192 |
| A28G C66U | 0.654 |
| A28G C66G | 0.0858 |
| A30G C46U | 0.236 |
| A28G A59G | 0.181 |

| Variant | self-cleavage |
| --- | --- |
| A28G A59C | 0.114 |
| G29C C37U | 0.121 |
| G29C U67A | 0.179 |
| A30C U52C | 0.133 |
| A30C U52A | 0.214 |
| A28U A41U | 1.31 |
| A28U A41G | 0.35 |
| A28C U60A | 0.448 |
| G29A G56A | 0.157 |
| A28G A64U | 0.159 |
| A28G A64C | 0.165 |
| G29C A49U | 0.109 |
| G29C A49G | 0.178 |
| G29C A45G | 0.106 |
| G29C A45U | 0.122 |
| G29U G69A | 0.105 |
| G29U G69C | 0.0911 |
| G29U A39G | 0.0986 |
| G29U A39U | 0.0632 |
| A28U A47C | 0.172 |
| A28U U55C | 0.161 |
| A28U U55G | 0.159 |
| G29A U52A | 0.115 |
| G29A U52G | 0.0639 |

| Variant | self-cleavage |
| --- | --- |
| G29C A47G | 0.0858 |
| G29C A47C | 0.15 |
| A28U C65G | 0.151 |
| A28U C65U | 0.153 |
| A28C A41U | 1.12 |
| A30C A61C | 0.251 |
| A28U A44U | 0.0894 |
| G29C A30U | 0.0915 |
| G29C A30G | 0.218 |
| A30G G57U | 0.0464 |
| A30G G57A | 0.0803 |
| G29A A61G | 0.125 |
| G29A A61C | 0.163 |
| G29U C50A | 0.113 |
| G29U C50G | 0.184 |
| A30C G69A | 0.0574 |
| A30C G69C | 0.318 |
| A28C U53A | 0.39 |
| A28C U53G | 0.213 |
| A28G A35G | 0.864 |
| A28G A35C | 1.27 |
| G29U A45G | 0.136 |
| G29C C48G | 0.0534 |
| A28G C46A | 0.199 |

| Variant | self-cleavage |
| --- | --- |
| G29U C65U | 0.105 |
| G29A U58G | 0.13 |
| G29A U58C | 0.202 |
| A28C A39U | 0.127 |
| A28C A39C | 0.238 |
| G29U A41C | 0.217 |
| G29A U55G | 0.143 |
| G29A U55A | 0.13 |
| G29U A61C | 0.14 |
| A30C U55C | 0.161 |
| A30C U55A | 0.146 |
| A28G A30C | 0.0631 |
| A28G A30G | 0.218 |
| A30G A45G | 0.17 |
| A30C U58A | 0.134 |
| A30C U58G | 0.103 |
| A28U A49U | 0.111 |
| G29C A44C | 0.126 |
| G29C U70A | 0.162 |
| G29C U70G | 0.119 |
| A28C C38U | 0.218 |
| A28C C38G | 0.194 |
| A28U G68A | 0.153 |
| A28U G68U | 0.272 |

| Variant | self-cleavage |
| --- | --- |
| A28U G68C | 0.151 |
| A30C G34U | 0.815 |
| G29C A64G | 0.124 |
| G29C A64C | 0.133 |
| G29A G42A | 0.139 |
| A28C A47C | 0.0848 |
| A28C A47G | 0.0559 |
| G29A U63C | 0.0755 |
| G29A A49C | 0.179 |
| G29A A47C | 0.107 |
| G29A A47U | 0.107 |
| A28G U33C | 0.155 |
| G29C C50G | 0.0763 |
| G29C C50U | 0.144 |
| G29A G69U | 0.113 |
| G29A G69C | 0.14 |
| A30G U62G | 0.112 |
| A30C G56U | 0.157 |
| A30C A36U | 0.122 |
| A28G C48G | 0.0684 |
| A28G C48A | 0.143 |
| A30C C66U | 0.169 |
| A30G C38U | 0.21 |
| A28C U52A | 0.492 |

| Variant | self-cleavage |
| --- | --- |
| A28U G42A | 0.167 |
| A30G U60C | 0.252 |
| A30G A59U | 0.305 |
| G29A G34C | 0.248 |
| A30G A43C | 0.1 |
| G29U A64G | 0.0899 |
| A30G G54C | 0.178 |
| A28U G32U | 0.258 |
| A28U G56U | 0.0609 |
| A28U G56C | 0.151 |
| A28U G56A | 0.174 |
| G29C A61G | 0.135 |
| G29C A61U | 0.0566 |
| A28G U63G | 0.223 |
| A28G U63A | 0.141 |
| A28G U63C | 0.138 |
| G29A G57C | 0.109 |
| G29C U52G | 0.0183 |
| G29C U52A | 0.129 |
| G29U A44G | 0.142 |
| G29A A35U | 0.0646 |
| A28G U55C | 0.53 |
| A28G U55A | 0.208 |
| G29U A43G | 0.134 |

| Variant | self-cleavage |
| --- | --- |
| A30C G54A | 0.107 |
| A30C G54C | 0.173 |
| A28C G57A | 0.119 |
| G29C U55G | 0.0655 |
| G29U U53C | 0.197 |
| A28C G29C | 0.204 |
| A28C G29U | 0.0915 |
| A28U U53A | 0.845 |
| A28U U70A | 0.422 |
| A30G U53G | 0.157 |
| G29U G54A | 0.104 |
| A28U A36U | 0.276 |
| A28G G51U | 1.14 |
| A30C C50U | 0.118 |
| A28C C37U | 0.396 |
| G29U G32U | 0.164 |
| G29U G32A | 0.169 |
| A28U U63C | 0.113 |
| G29C G69C | 0.0776 |
| G29U G68U | 0.176 |
| A30G G40A | 0.0732 |
| G29A C38G | 0.101 |
| A28U A61G | 0.0909 |
